The values below are quoted from earlier work in publication PMC3631546.

In general, pKa refers to the negative logarithm of the acid dissociation constant.

The target of this series is His37 (UniProt position 37, IIGILHLILWI). The experiment in a line: NMR. As to conditions: membrane-bound tetrameric channel, no drug mentioned.

On to “Influenza A M2 proton channel, transmembrane peptide (M2TM) (Influenza A virus (strain not stated))”, for which the pKa is 8.2.
